Consider 47 sequences from the NTF2 design screens of Basanta et al. (2020).

This data set can be described thus: protease stability score; higher = more stable; yeast display proteolysis, trypsin and chymotrypsin.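 Further: relative to predicted unfolded state with 0 unfolded-like and 1 meaning tenfold more protease.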
For “AEQHEQAREFLRNWLEAYHTGDEDLLRSMFDPNVRLHVDGRVIIGREDIIRERLHFLENHGITFHFRIQDMSVQGEKVIFDVEFHYRYNGQDYHKKVWLFVEKINGRWFMTQININ”, the protease stability score came out at 2.19. In the case of “AREEEIVEEMARLMRHLWTTGDEEKIDEMLDPDVRVEWRVNGVHLENHGRDQFIRILRRFSDEWRLRSLHDETFRIQGDKVEVDSRFDVQVNGQRDILETEFHLVVVDGRIRHVEIIIK” it was 1.6; in that of “DDALRHADTLLDQFEHHMETGDEESMTRLADPDTRTDINGQHFHGRDWWREFMRRVDHHHIRSVDYHSVRLFNGQIHFDVEIDVEIVIGDKRYRTRYHFEVVIVKIDGRWLLHRIKTE”, 0.861. “DDDAIKRFHEQVDNEQHNNEEEQEKNVDPNATVNVGDKTYHGREKWREVVKRENEEMRVKYQHVTFRRHPGRVIVRFRIVNDHNGKPTETDVNANYQMHNGRIRQVNRRTDG” showed a protease stability score of 0.225. Consider “DDDDRKNHEIAKWIWELIETGDEDILQHLADPDYRLVLDFDGVHIHRHGMTRIYHTLERVYREFGADHIHIRSITNINGVNIIDGEVQVNGKHYRLVLIFIVVNGRIKEIRVKKR”, for which the protease stability score is 1.54. The sequence “DDDEEIIERALRLWEKFEQTGDEKRLDEMIDPNVRVNYNGVIHHGRDHLRHFFSRFDHFKRLHIEDSRFFNGKIIIHTRLEGRIGDKERTVNVIIIALKVDGKWFLESWSMS” returned a protease stability score of 0.618. “DDDEHDTEKLLTFYSHAERTGDEELLRHLFDPDVKLYIGDKLFIGWRLFKERFRRWVEELGINHIEVHLHRYRIQGDKIDMDTRLELRYDGRTEHVESHVIVRKVDGRWNFERMHFN”: the protease stability score was 0.745. To “DDDEHEAKEAIHLWLELFMTGDEESHNRYMDPHVKTKFHFENHHEEYHGREKAIELMRMLGIKHVELRDVSTRVINGRVHIDMEIIVHFDGQEVRVIVLVIVIKINGQWILHEVVIIIK” belongs 0.933; to “DDDEHNAHHAVEIWIHLLRTGDEHMLERMFDPNTRIRFNGREFHGREEAHRFIEELLRTLGVDHSHITIHDMKIQGNKVHVDTRLTLIVGDKTYSRNTHLVILKVNGRWWLHSMHFN”, 1.41; to “DDDEKDLEKLIREVMEIIWTGDEDTFRHFMDPNTRLFIDGKIIVGMEEIMRRWHELLRKFGVDKIEVRLDDFKIIGNKIELHFEIMIGDKRFKTQTIFEKIDGRWILHSRFIH”, 2.01. For “DDDERALEEAIRIIKEVFKTGDERLHEELFDPNYLLIINGVFYHGREVMRNFHRHWRIRHVEFRRTRVINGRIEMDVHIITDINGQEIRHDSHIYAHKIDGRWIFRSVEHH”, the protease stability score came to 1.63. In the case of “DDDERDMDLALELIIRTIRTGDWELQSRLIDPHARLHIDGRDLHGMEEYVTILVEHWRRIKGVKVSITLHDRDVFDGVLHLDTEVELDFNGVRLHMKTEIISLKYNGRWFIKEIRVR” it was 0.654; in that of “DDDHKVAEKMNDTFLRLFLTGDFERLWELADPHVRILFNGVEFHGREQMSTVIEHHLRQMRVHDVTIEHITWQGDKLHVHSILRTRVGDKKVDDHIEVNILKVDGKWIVKEVKIL”, 2.01; in that of “DDDHLRKVEDFMRAQLEGDPDRLKQLADPNVRMNVGEKKVHGMQDIATEQASTYKTARYEIKSLDSKTEGDKVVITMRVQADNNGQPHDETFHLKARLENGKIVEQSKENDG”, -0.531. To “DDDKKRAEELLRLWHEFFETGDEHDMNRNLDPHAKVDVNGKEIHGREFVSEWLVRKVKFFKGIKLEHKRSHFVNGRAHLHTEINFDGVEFEVIIHSDKINGRWLVHEIIIK” belongs 1.17; to “DDDKREMEEIARRWVESLETGDEDTLTKLADPNTKLELLIDGRENNLIGMRYWLEFLERFKNVTIKFKRMRVQGDKADIETEVNINGQRFRVRIELWVIDGRLHTLHIRIE”, 1.23; to “DDDQKEMERFVREFVHSFMTGDEENIRRLADPNARTYVNGKLRHGMDNFLHLWRQIRIDIQHVKVDDMHLVNGRIYIRVTVHGIFTFDGVHVRDEKDQHWELHVVDGRAKYISIHVH”, 1.62. In the case of “DDDRRSLEDWIKISIESMKTGDEDEFEHLADPNPRMVVGDKHLVGRERAVHVFREWRVKHMTVKDHPIIDGRIEMDTRVTVHFNGRDIELELRIIIHKVNGKWLVEEIIIK” it was 0.381; in that of “DDDTREFEKWEKIWVEYYQTGNFDHLRRLIDPNVRSIVDGKEFHGREAMASMILEETKRADHIEMDLTRHEIIGEKMIIHSRIEIQVGDYHDHYRLELESIKVNGKWIVHRESYR”, 0.039. Sequence “DDEDEEVKLIIEEELHLARTGDFERLLELHDPDVRIIFDGREWHGREALRWLYRHLGIDRIDLHFEDVRVINGRVEMDVTENINGRKIKSRIIARKYDGRWINEQVDIK” returned a protease stability score of 2.28. To “DDEDEHWETLARHFVDNYLTGDWKRLWEMLDPNARLNVNGKEYHGREVIIRVLRKELEDLGVDVVDVEDIRVYGNKVDFHMTVRVGDKERRLEIDVHIVDGRIRKIIIRID” belongs 2.2. In the case of “DDEDHELEWMYRIMLRILETGDEDEYKKFADPNTRLLIDFNGRIIDDHGREHVKRSIFEWLEHARIRRKEKKTERHIDGRVILHMRMDVDVNGRRIDRDVLIIIVVINGKFREVDIQYR” it was 0.931; in that of “DDEDKRLETRARLWFEHFFTGDFEAMLWYLDPDTRLHINGREFHGMEHIVHHLEREILHLRVRIHLRRIKIFDGRLIIDIELEVHYGDKTHRTRAEIILIVVNGRIREIEVRES”, 1.5; in that of “DDEDREAQELLNLYLHAHRTGDEHLLDELVDPHARIIVNGQEIHGRDFLEYLKKFWGITNVNIDIHIDDLKLYDGRIEVETRLILEINGQRYTYSSHEHWHKVNGKWISKRVDFE”, 1.05. In the case of “DDEDRHASKLYHIIVHLEVTGDFEKWRDYADPNVRIVIGDKEFHGRELFMEWLKEIRLERFRIKHIKVIGEKTNSTTSFEVNVNGVRIENDTRIHIHVIDGKVHSVHFEIR” it was 1.57. For “DDEDRKKADEMLKALKHGDPDRVRELMDPNAKAVYGDKRIRGRDDFVEDMFRKQREIKIDMKIEEFRVNGNHAVFTVDVIEDKDGRPKRFKARVVITLHNGKIIDIKVEEEH”, the protease stability score was 1.49.

In turn, “DDEDRKLKHLIELLVHWFLTGDEDALKELADPNTKFDIGDKHYHGMEIVQEIWKRHLEEIRIQHVEIRHVEIQGNKTDITGELHGQIGDKHIRSEVRIHLNIINGRVRSMWFIIH” gave a protease stability score of 2.49.

The sequence “DDEEDHVREMFKLHWDNLRTGDFDKWMNLADPNVRFRYIFNGVDFEYHGRDFVSQILLEIRIDRISIHHVNIFEGHSEIDAHEETTYNGKKTERKVHIELIVFNGRIHELHVEIR” displayed a protease stability score of 0.682. In the case of “DDEEDKAREAFKMLQELVNTGNEELLYQYFDPNYRLDVDGRQIHGREAVVNERRKRFEMWGVEQVRLHIDTWDIIGNKVKLDGHLNFNGVIKKTHIHLLKVNGRWVIESERIE” it was 1.08. To “DDEEEDYERAFKIFIDFVKTGDWRLLKELADPNVRNVIGDKEFMGRETFTKWVFDVRAQFDHVEIRIRDFEIQGNKLILYTELHLHQGDKSLTLELRIVILKVNGKWLMHSFRLQ” belongs 1.4. “DDEEEEAKEMSEHTLQWFFTGDEEKLYKYIDPDVRVRVLIDGRELVYHGREVFLEFLKRQIEELGIDHVHLRRRHVIDGVLEVHGTINVDGREIELIIFADKYNGRWRLKLIEINVR” had a protease stability score of 1.69. “DDEEEEEEKFRKILEEALETGDERILHHFADPHVQTHFNGQTFHGREEWIKILRKLGVERVHLNIKRVEVYGDKIHIDGELHFDGRTHKVELVALKVDGRWLLHKIVIR” gave a protease stability score of 1.68.

In the case of “DDEEEESEHAVKFWKHAQETGDFDEMRRLADPNVKVEIGDKELHGRKDFTRLLREHKEKLGVERIEVFIHDMHPINGRVTVHVIIEYNGQRQWFHVIFLKINGRWFIESMHIT”, the protease stability score came to 0.378. For “DDEEEFIRKLFEDFYRAFLTGDWHELFELMDPNTRTEINGVHFHGRHIISEYLVTHIERVDHVSITLTRLDKIGDYLIIDSHLRQDVNGKKIHVRLHMHAHKIDGRWKIHRFEFE”, the protease stability score turned out to be 1.34.

“DDEEEIFKKAIEDFIRWERTGDWRQLVENLDPNTRVDVNGVYIHGRERIAEWIKHHIERVKNVKHHKHDEKVQGDKLHLDGVIIIDGVRFDVHLIIVVINGQYKHHEVRIR” showed a protease stability score of 1.17. To “DDEEEILKEFVRIFREVWLTGDFHALLRLADPNVRQELHVNGREIHNHGREAMSDWHHFMRKFFKGMTIIEHTSYLIDGRIHIEGTWSFDGVDFRTHIHQVVIDGRIEHVQLTIH” belongs 0.177; to “DDEEEINRRIAETFINNVKTGDEHSMREMMDPNTRLIVGDKHNHGWKEVEKFWREWRRHAGVDHIHVDDVRVIGNKVEIDETINQGDKFRDVRISIITINGRITELRIEIR”, 1.49; to “DDEEEVAERAARIVHHLYLTGNPEELLKYFDPDVRWIFNGKTSIGRENVVEMFDDVHRMFGIDVRTSDINSYDIVDGRIEVDSRLHLHINGRKINHHFRIESIKINGRWWLKRIDID”, 0.933. Regarding “DDEEHASRNAYRILKRVVETGDWREFRKMMDPDARVLINGVQLHGREAVHHLLERVDHLHDIELRHIHTQGNKIHIEISVDGLIDGQKTETERRILVTKFNGRWKVEQIEIG”, the protease stability score was determined as 0.628. In the case of “DDEEHDARRAVELHNEIERTGDEHEMHRFADPDVRIFIGDKELHGRETWSKYLSHVLERLGINHLHITIEHLHLQGNKMRLHGTIRMKIGDKRYEIHVEVYITKINGRWHLHTIRND”, the protease stability score is 0.363. To “DDEEHEARLAVHELREVQRTGDERQLHELIDPDTRFEFPGVTLHGRENMVEWLARIKNLRVESIHERHISIYNGQVDFDMEMHVRDGNKHRTEKWRIIMYKFDGRWSIKSFESR” belongs 0.961; to “DDEEHEARRVLEELIRVWITGNEELEDRLMDPNVRFVYGEYDLHGMEHFRHLLTVLKDQADHVSDVKLHDLEIQGDKVITRSVVDGVFNGRRFHRSQIIILIKVNGKWRIKSLHIH”, 1.33; to “DDEEHSAENFARHFMENLRTGDEDRLHELADPNMQIILHFDGQHEVRHGWESYEYLVRLFGVKHIHINHFEIFYVNGRVHLRIEGHIHQGDKYREVYIHIDINKVNGRWHVESVELRIH”, 0.93. For the sequence “DDEEKEDKDAIKLLVKFWETGDWENISRMMDPHVRLEVGEFTYHGREHFSRLYLEQYERVDHIQFRIHHLEVVGDKMTADTEVHIDINGRHIRLRTHINMIKINGRWRLHSVLIN”, the protease stability score was 1.48. “DDEEKEHLEMLKQFWENSYTGDERTLLHLLDPHARFILEFNGKSLQYHGREEVARFLRWLLEHIRVKDSHIHDIDVIGEKAVVDGRMHGEIDGREVEKETRLFIVVIDGRITKVFIEVR” gave a protease stability score of 1.6. On to “DDEEKETEDFLRLLIEFLLTGDEERLKDLLDPNTRLEYGEFDFVGREHVLEWRHHYRKILGAKHRELRIEHLHVIDGRVNAISRVHLRFDGREYSHETIIIIEKVNGKWLLHSEEIR”, for which the protease stability score amounted to 1.33.

“DDEEKEVKILTEIWWKSVRTGDEEFWDRLADPHTRLEILINGRTHEFHGMDEYNRILHHLRIEDRRTRSINNIDGKAQIDGFLVFRINGRSFETKVEVNISVVNGKVKHHKIIIE”: the protease stability score is 1.3.
